Here are results for one molecule from patent US20230048360A1 (EUREKA THERAPEUTICS, published 2023).

In this experiment the target is T1, biotinylated rat GPC3 (rat, UniProt P13265 25-558, limits assumed, biotinylated (site not stated)).
T1 construct: also called rat bt-GPC3; rat GPC3 peptide
Briefly: ELISA, biotinylated rat GPC3 on streptavidin plate.

T1 sequence (P13265 25-558 limits assumed): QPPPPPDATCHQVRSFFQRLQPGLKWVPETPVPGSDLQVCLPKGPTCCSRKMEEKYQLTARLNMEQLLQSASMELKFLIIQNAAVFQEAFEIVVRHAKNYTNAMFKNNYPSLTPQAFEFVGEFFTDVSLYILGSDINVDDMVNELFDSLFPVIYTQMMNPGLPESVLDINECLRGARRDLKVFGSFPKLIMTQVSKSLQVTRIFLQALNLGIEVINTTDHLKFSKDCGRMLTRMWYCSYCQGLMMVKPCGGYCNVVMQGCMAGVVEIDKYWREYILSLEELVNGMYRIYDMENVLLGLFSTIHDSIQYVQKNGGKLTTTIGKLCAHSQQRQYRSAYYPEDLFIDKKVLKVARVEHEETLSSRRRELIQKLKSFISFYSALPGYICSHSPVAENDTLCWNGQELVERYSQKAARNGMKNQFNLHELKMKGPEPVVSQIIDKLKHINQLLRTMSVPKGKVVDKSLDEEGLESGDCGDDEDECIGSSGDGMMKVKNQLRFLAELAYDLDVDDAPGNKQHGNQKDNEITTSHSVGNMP

B1: GPC3A-53 mIgG1 clone (antibody, V domains shown)
VH: QLQLQESGPGLVKPSETLSLTCTVSGGSISSSSYYWGWIRQPPGKGLEWIGSIYYSGSTYYNPSLKSRVTISVDTSKNQFSLKLSSVTAADTAVYYCARWWSGSYDTWGQGTLVTVSS
VL: QSVLTQPPSASAAPGQRVTISCSGTSSNIGSNYVWWYQQLPGAAPRLLIYGNSNRPSGVPDRFSGSKSGTSASLAITGLQAEDEADYYCQSYDSSLSGSNVFGTGTKVTVLG
notes: Mouse chimeric IgG1; also called GPC3A mIgG1 clone A-53
With B1, the binding result is “no binding (tested: 5 µg/mL)”.
